The supplement of paper PMC7877785
± gives the uncertainty stated by the source.

Experiment: self-splicing fitness, log relative to wild type (ln ratio); higher = more splicing; Tetrahymena group I intron in knt gene, E. coli kanamycin selection, DiMSum; sequences stand for … in CUCUCU…GGAGGGAAAAGUUAUCAGGCAUGCACCUGGUAGCUAGUCUUUAAACCAAUAGAUUGCAUCGGUUUAAAAGGCAAGACCGUCAAAUUGCGGGAAAGGGGUCAACAGCCGUUCAGUACCAAGUCUCAGGGGAAACUUUGAGAUGGCCUUGCAAAGGGUAUGGUAAUAAGCUGACGGACAUGGUCCUAACCACGCAGCCAAGUCCUAAGUCAACAGAUCUUCUGUUGAUAUGGAUGCAGUUCACAGACUAAAUGUCGGUCGGGGAAGAUGUAUUCUUCUCAUAAGAUAUAGUCGGACCUCUCCUUAAUGGGAGCUAGCGGAUGAAGUGAUGCAACACUGGAGCCGCUGGGAACUAAUUUGUAUGCGAAAGUAUAUUGAUUAGUUUUGGAGUACUCGUGGUCG
Outline: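 Fitness was computed with DiMSum as the error-weighted combination of replicate fold changes, kanamycin versus none, each normalised to wild type. The library randomised all eight intron nucleotides of the P1ex region, with the intron placed in the knt kanamycin-resistance gene on pET-22b(+) in E. coli BL21(DE3). Six replicate transformations were grown overnight at 37°C or 30°C on LB agar with or without 25 μg/mL kanamycin, plus 100 μg/mL carbenicillin, 50 μM IPTG and 0.2% rhamnose. Pooled colonies were amplicon-sequenced on an Illumina HiSeq 2500.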

Sequence	self-splicing fitness (ln) (30 °C)	self-splicing fitness (ln) (37 °C)
UAGAAGCAAUAUUACGCCAU	-1.02 ± 0.4	
UAGAAGCAAUAUUACGCCCU	-0.743 ± 0.19	0.316 ± 0.22
UAGAAGCAAUAUUACGCGCA	-0.327 ± 0.15	0.03 ± 0.18
UAGAAGCAAUAUUACGCGCU	-1.28 ± 0.16	-1.85 ± 0.17
UAGAAGCAAUAUUACGCUGA		-1.74 ± 0.2
UAGAAGCAAUAUUACGCUGG	-1.38 ± 0.16	-0.436 ± 0.18
UAGAAGCAAUAUUACGGACA	-0.547 ± 0.11	-0.0716 ± 0.13
UAGAAGCAAUAUUACGGACG	-0.286 ± 0.13	0.291 ± 0.16
UAGAAGCAAUAUUACGGAGC		-3.93 ± 0.46
UAGAAGCAAUAUUACGGAUG	-1.41 ± 0.099	-0.694 ± 0.12
UAGAAGCAAUAUUACGGCUC	-2.6 ± 0.3	-0.946 ± 0.3
UAGAAGCAAUAUUACGGGAG	-1.97 ± 0.14	-1.39 ± 0.12
UAGAAGCAAUAUUACGGGGA	-2.39 ± 0.14	-0.988 ± 0.12
UAGAAGCAAUAUUACGGGUU	-4.54 ± 0.34	-1.87 ± 0.2
UAGAAGCAAUAUUACGGUAC	-3.25 ± 0.37	
UAGAAGCAAUAUUACGGUGG	-1.84 ± 0.12	-1.2 ± 0.13
UAGAAGCAAUAUUACGUCAC	-2.92 ± 0.35	
UAGAAGCAAUAUUACGUGAU	-2.73 ± 0.11	-1.84 ± 0.11
UAGAAGCAAUAUUACGUGCG	-0.462 ± 0.082	-0.125 ± 0.098
UAGAAGCAAUAUUACGUGGA	-2.1 ± 0.13	-1.92 ± 0.16
UAGCAGCAAUAUUACGAAGG	-2.85 ± 0.12	-2.21 ± 0.19
UAGCAGCAAUAUUACGACGU	-1.14 ± 0.073	-0.658 ± 0.1
UAGCAGCAAUAUUACGAGUG	-1.02 ± 0.075	-0.131 ± 0.075
UAGCAGCAAUAUUACGAGUU	-3.47 ± 0.15	-1.98 ± 0.14
UAGCAGCAAUAUUACGAUAG	-1.78 ± 0.073	-1.46 ± 0.1
UAGCAGCAAUAUUACGCAGG	-3.01 ± 0.25	-2.14 ± 0.25

Sequence	self-splicing fitness (ln) (30 °C)	self-splicing fitness (ln) (37 °C)
UAGCAGCAAUAUUACGCAUG	-0.793 ± 0.096	-1.17 ± 0.14
UAGCAGCAAUAUUACGCCCG	-0.432 ± 0.18	-0.57 ± 0.21
UAGCAGCAAUAUUACGGAGU	-3.64 ± 0.18	-2.78 ± 0.15
UAGCAGCAAUAUUACGGCAC	-2.14 ± 0.18	0.167 ± 0.21
UAGCAGCAAUAUUACGGCGU	-0.605 ± 0.12	0.0421 ± 0.13
UAGCAGCAAUAUUACGGGCG	-0.609 ± 0.065	-0.24 ± 0.087
UAGCAGCAAUAUUACGGGUC		-3.65 ± 0.42
UAGCAGCAAUAUUACGUAUC	-3.16 ± 0.16	-2.87 ± 0.25
UAGCAGCAAUAUUACGUCAC	-4.49 ± 0.42	-2.46 ± 0.33
UAGCAGCAAUAUUACGUCAG	-0.628 ± 0.1	-1.13 ± 0.12
UAGCAGCAAUAUUACGUCGG	-0.706 ± 0.1	-0.878 ± 0.13
UAGCAGCAAUAUUACGUCUG	-1.32 ± 0.14	-1.6 ± 0.14
UAGCAGCAAUAUUACGUGCA	-0.411 ± 0.082	-0.287 ± 0.086
UAGCAGCAAUAUUACGUUGA	-2.46 ± 0.13	-2.07 ± 0.12
UAGGAGCAAUAUUACGAAGU		-2.35 ± 0.43
UAGGAGCAAUAUUACGAGAU		-1.95 ± 0.36
UAGGAGCAAUAUUACGAGGG	-3.6 ± 0.42	-2.35 ± 0.33
UAGGAGCAAUAUUACGAUUC	-2.08 ± 0.37	
UAGGAGCAAUAUUACGAUUG	-1.85 ± 0.15	-0.617 ± 0.16
UAGGAGCAAUAUUACGCACG	-2.12 ± 0.32	-0.819 ± 0.25
UAGGAGCAAUAUUACGCAUG	-1.64 ± 0.2	0.135 ± 0.15
UAGGAGCAAUAUUACGCCGG	-2.07 ± 0.22	-1.57 ± 0.3
UAGGAGCAAUAUUACGCUAG	-3.03 ± 0.19	-0.83 ± 0.19
UAGGAGCAAUAUUACGCUGC	-3.05 ± 0.41	-1.03 ± 0.42
UAGGAGCAAUAUUACGGGAC	-3.63 ± 0.4	-2.85 ± 0.47
UAGGAGCAAUAUUACGGUCC	-3.93 ± 0.37	-0.78 ± 0.26

Sequence	self-splicing fitness (ln) (30 °C)	self-splicing fitness (ln) (37 °C)
UAGGAGCAAUAUUACGGUGG	-2.79 ± 0.21	-0.497 ± 0.17
UAGGAGCAAUAUUACGUACG	-1.28 ± 0.17	-0.737 ± 0.3
UAGGAGCAAUAUUACGUCUC	-2.51 ± 0.49	
UAGGAGCAAUAUUACGUGUA	-2.02 ± 0.13	-1.63 ± 0.12
UAGGAGCAAUAUUACGUGUC	-3.27 ± 0.34	-1.82 ± 0.27
UAGGAGCAAUAUUACGUUCC	-2.97 ± 0.4	
UAGUAGCAAUAUUACGAAAG		-1.97 ± 0.26
UAGUAGCAAUAUUACGACCA	-0.4 ± 0.15	0.221 ± 0.17
UAGUAGCAAUAUUACGAGCC	-2.98 ± 0.47	-2.31 ± 0.42
UAGUAGCAAUAUUACGAUCC	-3.16 ± 0.45	-2.22 ± 0.4
UAGUAGCAAUAUUACGAUGU		-2.22 ± 0.32
UAGUAGCAAUAUUACGCAAU		-2.45 ± 0.35
UAGUAGCAAUAUUACGCACG	-0.964 ± 0.15	-0.244 ± 0.21
UAGUAGCAAUAUUACGCCUU	-2.11 ± 0.12	-0.556 ± 0.11
UAGUAGCAAUAUUACGCGUU	-2.86 ± 0.17	-2.44 ± 0.23
UAGUAGCAAUAUUACGCUGG	-1.13 ± 0.099	-1.34 ± 0.15
UAGUAGCAAUAUUACGGAAU		-2.65 ± 0.44
UAGUAGCAAUAUUACGGACG	-2.09 ± 0.12	-0.623 ± 0.13
UAGUAGCAAUAUUACGGAUG	-0.956 ± 0.084	-0.222 ± 0.087
UAGUAGCAAUAUUACGGGCC	-2.91 ± 0.23	-1.62 ± 0.22
UAGUAGCAAUAUUACGUAGG	-3.19 ± 0.47	
UAGUAGCAAUAUUACGUCUG	0.113 ± 0.19	-0.884 ± 0.2
UAGUAGCAAUAUUACGUGCG	-1.52 ± 0.12	-0.311 ± 0.15
UAGUAGCAAUAUUACGUGGU	-3.62 ± 0.18	-3.33 ± 0.19
UAGUAGCAAUAUUACGUUGA	-2.34 ± 0.13	-1.54 ± 0.12
UAGUAGCAAUAUUACGUUUG	-2.4 ± 0.18	-0.923 ± 0.14

Sequence	self-splicing fitness (ln) (30 °C)	self-splicing fitness (ln) (37 °C)
UAUAAGCAAUAUUACGAGCU	-3.44 ± 0.34	-1.47 ± 0.21
UAUAAGCAAUAUUACGAGUA	-0.776 ± 0.085	-0.245 ± 0.081
UAUAAGCAAUAUUACGAUAC		-2.39 ± 0.33
UAUAAGCAAUAUUACGAUCA	-0.251 ± 0.1	0.847 ± 0.11
UAUAAGCAAUAUUACGCCAC	-3.21 ± 0.43	-1.21 ± 0.38
UAUAAGCAAUAUUACGCGUU	-2.67 ± 0.14	-0.931 ± 0.12
UAUAAGCAAUAUUACGCUCU	-0.357 ± 0.11	0.0533 ± 0.16
UAUAAGCAAUAUUACGCUGC	-3.35 ± 0.32	
UAUAAGCAAUAUUACGGCGU	-0.993 ± 0.093	-0.232 ± 0.12
UAUAAGCAAUAUUACGGCUA	-0.234 ± 0.092	-0.126 ± 0.13
UAUAAGCAAUAUUACGGCUU	-1.22 ± 0.12	-0.669 ± 0.16
UAUAAGCAAUAUUACGGGAC	-4.01 ± 0.37	-2.76 ± 0.32
UAUAAGCAAUAUUACGGUCA	-0.385 ± 0.12	-0.125 ± 0.13
UAUAAGCAAUAUUACGUGAG	-1.56 ± 0.1	-1.12 ± 0.14
UAUAAGCAAUAUUACGUGUG	-0.923 ± 0.073	-0.446 ± 0.088
UAUCAGCAAUAUUACGAAAC		-2.08 ± 0.32
UAUCAGCAAUAUUACGAAGG	-1.58 ± 0.1	-1.34 ± 0.13
UAUCAGCAAUAUUACGACAG	-0.385 ± 0.078	0.0531 ± 0.1
UAUCAGCAAUAUUACGACUC	-0.81 ± 0.11	-0.283 ± 0.12
UAUCAGCAAUAUUACGACUG	0.153 ± 0.078	0.512 ± 0.13
UAUCAGCAAUAUUACGAGAA	-1.22 ± 0.16	-0.559 ± 0.13
UAUCAGCAAUAUUACGAGCG	-0.616 ± 0.059	0.345 ± 0.088
UAUCAGCAAUAUUACGAUGU	-0.816 ± 0.072	-0.0178 ± 0.11
